Results on 42 variants are retold here after the Human Domainome abundance scans (Beltran et al. 2025).

The labels stand for the following.
B1: KAT8 regulatory NSL complex subunit 2, residues 28 to 91; numbered along this chain, Q9H9L4 (parent)
chain: CAFTHRPCSHPRLEGQEFCIKHILEDKNAPFKQCSYISTKNGKRCPNAAPKPEKKDGVSFCAEH

± gives the uncertainty stated by the source.

The variants in the data set derive from B1. Description: abundance fitness (aPCA) (normalised: wild type 0, dead -1); higher = more abundant; growth selection in yeast, the domain comes from the species named. The settings on record: Homo sapiens.
In the case of CAFTHRPCSHPRLEGQEFCIKHILEDKNAPFKQKSYISTKNGKRCPNAAPKPEKKDGVSFCAEH [C34K], the abundance fitness is -0.484 ± 0.1. As for CAFTHRPCSHPRLEGQEFCIKHILEDKNAPFKQESYISTKNGKRCPNAAPKPEKKDGVSFCAEH [C34E], the abundance fitness was -0.185 ± 0.073. The result for CAFTHRPCSHPRLEGQEFCIKHILEDKNAPFKQQSYISTKNGKRCPNAAPKPEKKDGVSFCAEH [C34Q] reads -0.41 ± 0.12. For the variant CAFTHRPCSHPRLEGQEFCIKHILEDKNAPFKDCSYISTKNGKRCPNAAPKPEKKDGVSFCAEH [Q33D], the abundance fitness was -0.238 ± 0.12. The result for CAFTHRPCSHPRLEGQEFCIKHILEDKNAPFKVCSYISTKNGKRCPNAAPKPEKKDGVSFCAEH [Q33V] reads -0.03 ± 0.06; that for CAFTHRPCSHPRLEGQEFCIKHILEDKNAPFKNCSYISTKNGKRCPNAAPKPEKKDGVSFCAEH [Q33N], -0.11 ± 0.073. As for CAFTHRPCSHPRLEGQEFCIKHILEDKNAPFKQCSYISTKNGKRCPNAAPKDEKKDGVSFCAEH [P52D], the abundance fitness was -0.077 ± 0.084. In the case of CAFTHRPCSHPRLEGQEFCIKHILEDKNAPFKQCSYISTKNGKRCPNAAPKEEKKDGVSFCAEH [P52E], the abundance fitness was -0.066 ± 0.058. In the case of CAFTHRPCSHPRLEGQEFCIKHILEDKNAPIKQCSYISTKNGKRCPNAAPKPEKKDGVSFCAEH [F31I], the abundance fitness is -0.391 ± 0.13. As for CAFTHRPCSHPRLEGQEFCIKHILEDKNAPFKQCSYISTKNGKRCPNAAPKPEKKDGVSFCAGH [E63G], the abundance fitness is -0.034 ± 0.05.

As for CAFTHRPCSHPRLEGQEFCIKHILEDKNAPFKQCSYISTKNGKRCPNAAPKPEKKDGVSFCAFH [E63F], the abundance fitness was -0.107 ± 0.079. CAFTHRPCSHPRLEGQEFCIKHILEDKNAPFKQCSYISTKMGKRCPNAAPKPEKKDGVSFCAEH [N41M]: the abundance fitness was -0.079 ± 0.1. On to CAFTHRPCSHPRLEGQEFCIKHILEDKNAPFKQCSYISTKNGKRCPNAAPKPEKKDGVSFQAEH [C61Q], for which the abundance fitness is -0.44 ± 0.077. With CAFTHRPCSHPRLEGQEFCIKHILEDKNAPFKQCSYISTKNGKRCPNAAPKPEKKDGVSFIAEH [C61I], the abundance fitness is -0.499 ± 0.085. For the variant CAFTHRPCSHPRLEGQEFHIKHILEDKNAPFKQCSYISTKNGKRCPNAAPKPEKKDGVSFCAEH [C19H], the abundance fitness is -1.63 ± 0.37. Take CAFTHRPCSHPRLEGQEFCIKHILEDDNAPFKQCSYISTKNGKRCPNAAPKPEKKDGVSFCAEH [K27D]: the abundance fitness is -0.172 ± 0.097. As for CAFTHRPCSHPRLEGQEFCIKHILEDPNAPFKQCSYISTKNGKRCPNAAPKPEKKDGVSFCAEH [K27P], the abundance fitness is -0.091 ± 0.058.

As to CAFTHRPCSHPRLEGQEFCIKHILEDKLAPFKQCSYISTKNGKRCPNAAPKPEKKDGVSFCAEH [N28L], the abundance fitness is -0.093 ± 0.051.

With CAFTHRPCSHPRLEGQEFCIKHILEDKAAPFKQCSYISTKNGKRCPNAAPKPEKKDGVSFCAEH [N28A], the abundance fitness is -0.118 ± 0.1. Consider CAFTHRPCSHPRLEGQEFCIKHILEDKTAPFKQCSYISTKNGKRCPNAAPKPEKKDGVSFCAEH [N28T], for which the abundance fitness was -0.031 ± 0.068. In the case of CAFTHRPCGHPRLEGQEFCIKHILEDKNAPFKQCSYISTKNGKRCPNAAPKPEKKDGVSFCAEH [S9G], the abundance fitness was -0.13 ± 0.051.

For the variant CAFTHRPCSHPRLEGQEFCIKHILEDKNAPFKQCSYISTKNGKRCPNAAPLPEKKDGVSFCAEH [K51L], the abundance fitness is -0.101 ± 0.052.

Regarding CAFTHRPCSHPRLEGQEFCIKHILEDKNAPFKQCSYISTKNGKRCPNAAPFPEKKDGVSFCAEH [K51F], the abundance fitness is -0.21 ± 0.068. For CAFTHRPCSHPRLEGQEFCIKHILEDKNAPFKQCSYISTKNGKRCPNAAPYPEKKDGVSFCAEH [K51Y], the abundance fitness is -0.327 ± 0.094. The result for CAFTHRPCSHPRLEGQEFCIKHILEDKNAPFKQCSYISTKNGKGCPNAAPKPEKKDGVSFCAEH [R44G] reads -0.027 ± 0.059; that for CAFTHRPCSHPRLEGQEFCIKHIAEDKNAPFKQCSYISTKNGKRCPNAAPKPEKKDGVSFCAEH [L24A], -0.144 ± 0.07; that for CMFTHRPCSHPRLEGQEFCIKHILEDKNAPFKQCSYISTKNGKRCPNAAPKPEKKDGVSFCAEH [A2M], -0.014 ± 0.082. As for CQFTHRPCSHPRLEGQEFCIKHILEDKNAPFKQCSYISTKNGKRCPNAAPKPEKKDGVSFCAEH [A2Q], the abundance fitness is -0.186 ± 0.16. As for CAFTHRPCSHCRLEGQEFCIKHILEDKNAPFKQCSYISTKNGKRCPNAAPKPEKKDGVSFCAEH [P11C], the abundance fitness is -0.296 ± 0.098.

CAFTHRPCSHDRLEGQEFCIKHILEDKNAPFKQCSYISTKNGKRCPNAAPKPEKKDGVSFCAEH [P11D]: the abundance fitness was -0.068 ± 0.12. For the variant CAFTHRPCSHPRLEGQEFCIKHILEDKNAPFKQCSYIRTKNGKRCPNAAPKPEKKDGVSFCAEH [S38R], the abundance fitness was -0.06 ± 0.049. CAFTHRPCSHPRLEGQEFCIKHILEDKNAPFKQCSYIVTKNGKRCPNAAPKPEKKDGVSFCAEH [S38V]: the abundance fitness was -0.024 ± 0.051. The value for CAFTHRPCSHPRLEGQECCIKHILEDKNAPFKQCSYISTKNGKRCPNAAPKPEKKDGVSFCAEH [F18C] was -0.334 ± 0.062; that for CAFTHRPCSHPRLEGQEQCIKHILEDKNAPFKQCSYISTKNGKRCPNAAPKPEKKDGVSFCAEH [F18Q] was -0.642 ± 0.12; that for CAFTHRPCSHPRLEGQEGCIKHILEDKNAPFKQCSYISTKNGKRCPNAAPKPEKKDGVSFCAEH [F18G] was -0.563 ± 0.047.

Turning to CAFTHRPCSHPRLEGQEFCIKHILEDKNAPFKQCSYISKKNGKRCPNAAPKPEKKDGVSFCAEH [T39K], the abundance fitness is -0.087 ± 0.13. The result for CAFTHIPCSHPRLEGQEFCIKHILEDKNAPFKQCSYISTKNGKRCPNAAPKPEKKDGVSFCAEH [R6I] reads -0.034 ± 0.079. On to CAFTCRPCSHPRLEGQEFCIKHILEDKNAPFKQCSYISTKNGKRCPNAAPKPEKKDGVSFCAEH [H5C], for which the abundance fitness is -0.112 ± 0.063. Regarding CAFTTRPCSHPRLEGQEFCIKHILEDKNAPFKQCSYISTKNGKRCPNAAPKPEKKDGVSFCAEH [H5T], the abundance fitness came out at 0.034 ± 0.091. The result for CAFTNRPCSHPRLEGQEFCIKHILEDKNAPFKQCSYISTKNGKRCPNAAPKPEKKDGVSFCAEH [H5N] reads -0.212 ± 0.12; that for CAFTHRPCSHPRLEGQEFCIKHILEDKNAPFKQCSYISTKNGTRCPNAAPKPEKKDGVSFCAEH [K43T], -0.028 ± 0.051; that for CAFTHRPCSHPRLEGQEFCIKHILEDKNAPFKQCSYISTKNGSRCPNAAPKPEKKDGVSFCAEH [K43S], -0.042 ± 0.048.
